Measured values from patent publication US7056679 (ANTYRA, dated 2006).

T1: DGI-9 (HEC) (UniProt O14777 1-642, limits assumed)
T1 sequence (looked up): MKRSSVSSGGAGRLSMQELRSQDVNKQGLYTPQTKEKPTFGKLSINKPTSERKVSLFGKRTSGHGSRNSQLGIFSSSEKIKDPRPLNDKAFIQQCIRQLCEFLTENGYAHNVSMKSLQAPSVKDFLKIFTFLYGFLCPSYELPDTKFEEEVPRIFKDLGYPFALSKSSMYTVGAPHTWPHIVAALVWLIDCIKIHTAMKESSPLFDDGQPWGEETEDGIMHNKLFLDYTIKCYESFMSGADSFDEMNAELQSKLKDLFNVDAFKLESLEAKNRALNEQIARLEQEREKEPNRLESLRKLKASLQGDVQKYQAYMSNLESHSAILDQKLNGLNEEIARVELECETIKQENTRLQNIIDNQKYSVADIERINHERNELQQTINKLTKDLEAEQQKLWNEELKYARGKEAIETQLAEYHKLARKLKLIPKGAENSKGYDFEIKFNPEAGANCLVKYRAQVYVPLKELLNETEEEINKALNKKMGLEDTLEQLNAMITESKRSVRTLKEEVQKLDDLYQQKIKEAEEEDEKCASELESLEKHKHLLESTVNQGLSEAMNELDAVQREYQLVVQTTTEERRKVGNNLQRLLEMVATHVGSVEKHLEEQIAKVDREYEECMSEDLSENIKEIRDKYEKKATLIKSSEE


What was measured:
[1] = target: T1, DGI-9 (HEC); test: phage ELISA; DGI-9 coated
[2] = target: T2, antibody raised against ETAG; test: phage ELISA; anti-E-tag antibody coated
T2 construct: read-out of display; also called E-tag antibody; E tag antibody

[3] = target: T1, DGI-9 (HEC); test: phage ELISA; DGI-9 signal over LDH signal

Binder | DGI-9 [1] [ratio over background] | E-Tag [2] [ratio over background] | DGI9/LDH [3] [ratio]
FLLQDFIMDAGSFVKPIGVGGAPVPYPDPLEPR (library 20F; not shown: phage gene III coat protein (pCANTAB5E)) [DGI9-20M-4-A414] | 8.7 | 32.6 | 8.1
SRLALSSQHGLSLVAGRRRGGAPVPYPDPLEPR (library 20R (the E-tag is described for library 20F); not shown: phage gene III coat protein (pCANTAB5E)) [DGI9-20M-4-A12] | 1.9 | 20.7 | 2.1
MAGFRGSGLSGYSEARLPRVGAPVPYPDPLEPR (library 20F; not shown: phage gene III coat protein (pCANTAB5E)) [DGI9-20M-4-E3] | 7 | 34.5 | 7.1
WDWSRFGAQLRGAILGRATGGAPVPYPDPLEPR (library 20R (the E-tag is described for library 20F); not shown: phage gene III coat protein (pCANTAB5E)) [DGI9-20M-4-A627] | 6 | 27.2 | 6.5
